Laboratory results as given in article PMC7617672, “Oryza genera-specific novel Histone H4 variant predisposes H4 Lysine5 Acetylation marks to modulate salt stress responses”.

Experiments:
[1] = biological target: rice histone H2A;rice histone H2B;rice histone H3;H4.VS (H4.V N-terminal 53 aa fused to H4 C-terminal 50 aa) (Oryza sativa;Oryza sativa;Oryza …, UniProt A2YMC6;A2WKP5;A2Y533;PDB:8Q16_4 ;;;, |||); experiment: EMSA (nucleosome reconstitution, native PAGE); mobility shift similar to H4 NCP; NCP gel: native 6% acrylamide, 0.5x TBE; peptide pull-down: 10 mM Tris pH 8.0, 50 mM NaCl, 5 mM MgCl2, 4 C, 6 h; cryo-EM: 10 mM Tris pH 8.0, 50 mM NaCl, 1 mM EDTA; conditions: protein: recombinant;recombinant;recombinant;recombinant; tags: none;none;none;none; chain copies: 2;2;2;2; blunt
[2] = biological target: rice histone H2A;rice histone H2B;rice histone H3;rice histone H4 (Oryza sativa;Oryza sativa;Oryza …, UniProt A2YMC6;A2WKP5;A2Y533;B7F4Q1 ;;;1-103, |||); experiment: EMSA (nucleosome reconstitution, native PAGE); NCP gel: native 6% acrylamide, 0.5x TBE; peptide pull-down: 10 mM Tris pH 8.0, 50 mM NaCl, 5 mM MgCl2, 4 C, 6 h; cryo-EM: 10 mM Tris pH 8.0, 50 mM NaCl, 1 mM EDTA; conditions: protein: recombinant;recombinant;recombinant;recombinant; tags: none;none;none;N-terminal MGS extension from vector; chain copies: 2;2;2;2; blunt

B1: Widom 601 NPS (147 bp as stated; 146 nt printed) (dsDNA)
DNA 1: CTGGAGAATCCCGGTGCCGAGGCCGCTCAATTGGTCGTAGACAGCTCTAGCACCGCTTAAACGCACGTACGCGCTGTCCCCCGCGTTTTAACCGCCAAGGGGATTACTCCCTAGTCTCCAGGCACGTGTCACATATATACATCCTG
DNA 2: CAGGATGTATATATGTGACACGTGCCTGGAGACTAGGGAGTAATCCCCTTGGCGGTTAAAACGCGGGGGACAGCGCGTACGTGCGTTTAAGCGGTGCTAGAGCTGTCTACGACCAATTGAGCGGCCTCGGCACCGGGATTCTCCAG
binding result [1]: binds | binding result [2]: binds
